Molecular target: the molecule itself
Assay: native MS; native ESI-MS (time-of-flight), 200 mM ammonium acetate pH 7.5, sample at 8 uM; without and with ADPNP, without and with the 155 bp DNA

B1: Thermus thermophilus GyrB-GyrA fusion protein (GyrBA-fus) (enzyme)
chain: MSYDASAIRVLKGLEGVRHRPAMYIGGTGVEGYHHLFKEILDNAVDEALAGYATEILVRLNEDGSLTVEDNGRGIPVDLMPEEGKPAVEVIYTTLHSGGKFEQGAYKVSGGLHGVGASVVNALSEWTVVEVFREGKHHRIAFSRGEVTEPLRVVGEAPRGKTGTRVTFKPDPEIFGNLRFDPSKIRARLREVAYLVAGLKLVFQDRQHGKEEVFLDKGGVASFAKALAEGEDLLYEKPFLIRGTHGEVEVEVGFLHTQGYNAEILTYANMIPTRDGGTHLTAFKSAYSRALNQYAKKAGLNKEKGPQPTGDDLLEGLYAVVSVKLPNPQFEGQTKGKLLNPEAGTAVGQVVYERLLEILEENPRIAKAVYEKALRAAQAREAARKARELVRRQNPLESDELPGKLADCQTENPEEAELFIVEGDSAGGSAKQGRDRRFQAILPLRGKILNVEKAGLSKALKNAEVRAMVSAIGVGIGGDGEAHFDLEGLRYHKIIIMTDADVDGSHIRTLLLTFFYRYMRPLIERGHVYIAQPPLYRLQVGKKVEYLYSDEELQARLKELEGKHYEVQRFKGLGEMNPEQLWETTMNPEKRVLKRVELQDALEASELFEKLMGQEVAPRREFIEEHARYAELDIGDLMAQVLPVEITEELKQSFINYAMSVIVDRALPDVRDGLKPVQRRILFGAYQEGVLPGRKHVKSAKIVGEVMGKYHPHGDAAIYDALVRMAQPWNLRYPLIDGQGNFGSIDGDPPAAQRYTEARLSPIGAEMLLDIDKDTVDFRPNYDGSLKEPEVLPAAIPNLLVNGASGIAVGMATSLPPHNLSEVVDALVAMIENPAITLEEVMRHLPGPDFPTGGKLSKKGIKEAYATGRGSLKVRAKVRVEEKGQRPVLVVTEIPYQVNKASLIAQIAALVKAKKIEDIVGLRDESDRQGLRIAIELKRGANPQVVLNQLYKHTALQTSFTVNLLAIVDGEPKVLSLLDLMRHYLDHRKEVVRRRSLFELRKAEERAHVLEGLLIALDHIDEVIALIRGSEDAPKARIALMERFGLSEAQAQAILDMRLQRLVALEREKLLEEYRGLMEEIARLKAILEDEARLLAEVKADLLRVKEKYGDARRTLITEFEETFNPEDLIEDEPMVITLTAQGFLKRLPLESYRAQGRGGKGLLAGRTKEEDEATHVFVADAHDDLLLFTNRGRVYRLKVYELPEMGRQARGVHVKSLLPLAEDEEVAALLSVRGLDQEGYLVFATERGLVKRTALKEYQNLGQAGLIAIRLQEGDRLVGVALSDPEDEAILATQEGQAIRFPLEEVRATGRDTQGVIGVRFKKPEDRVVSLVVVKPGEMVDLLSVSTRGYGKRTPLSEYPLQGRGGMGVITYAVSTKVGRLAALLKVRGGEDLLVLSRRGLAIRTPVAEIRQYSRATAGVRVMNLPEDDEVASAFVVEEEK
notes: DNA gyrase subunit B (GyrB), Thermus thermophilus, amplified from genomic DNA; three-amino acid G-D-L linker between the C-terminus of GyrB and the N-terminus of GyrA; DNA gyrase subunit A (GyrA), Thermus thermophilus, amplified from genomic DNA; The His10 tag stands upstream of a PreScission protease (P3C) site; Details of cloning and purification are in the Supplementary Methods; A dimer of the …
In the case of B1, the “stoichiometry N” value is reported as 2.
